In PMC11173892 one finds stoichiometry N data, which are given here for 1 substance.

In the assay the target is recombinant human paraoxonase 2 (rPON2) (human) (UniProt Q15165). Kind of assay: SEC; Hi-Load 26/600 Superdex 75, renaturing buffer (20 mM Hepes pH 8.5, 0.5 mM CaCl2, 0.1% trehalose), 1.5 mL/min, pooled Ni-NTA fractions of refolded rPON2; calibrated with gel filtration markers; dimer to monomers.

“recombinant human paraoxonase 2 (rPON2) (from UniProt Q15165 1-354) (enzyme)”: the stoichiometry N was determined as 2.
